# Data published in patent US20120316071A1 (published 2012).
# Changes are numbered by the printed parent chain. In names and notes the source's numbering stands.
# T1: rHuman Erythropoietin R/Fc Chimera, CF (R&D Systems Cat#963-ER) (human, UniProt P19235 25-250)
# T1 construct: Bought recombinant Fc chimera; also called EPO R; EPO R/Fc; Fc part of the bought chimera not given
# T1 sequence (looked up): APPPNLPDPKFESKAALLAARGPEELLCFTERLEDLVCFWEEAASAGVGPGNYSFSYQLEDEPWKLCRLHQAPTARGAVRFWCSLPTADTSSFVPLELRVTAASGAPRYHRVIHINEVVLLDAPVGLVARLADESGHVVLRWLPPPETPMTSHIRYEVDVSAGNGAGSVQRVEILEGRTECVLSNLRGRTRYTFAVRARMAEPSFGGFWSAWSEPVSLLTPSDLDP
# T2: rHuman Erythropoietin R/Fc Chimera, CF (R&D Systems Cat#963-ER) (human, UniProt P19235 25-250)
# T2 construct: Bought reagent; also called EPO R/Fc; EPO R; Fc part of the bought chimera not given
# T2 sequence (looked up): T1 sequence (looked up)
# T3: rHuman Erythropoietin R/Fc Chimera (human, UniProt P19235 25-250)
# T3 construct: also called EPO R; EPO R/Fc; not shown: Fc of the bought R&D Systems chimera
# T3 sequence (looked up): T1 sequence (looked up)
# B1: Fab VH5-51_IGHD5-18*01>3_IGHJ4*01 G100K/G104T (KT) & V3-4_IGLJ1*01 (Fab, V domains shown)
# VH: EVQLVQSGAEVKKPGESLKISCKGSGYSFTSYWIGWVRQMPGKGLEWMGIIYPGDSDTRYSPSFQGQVTISADKSISTAYLQWSSLKASDTAMYYCARRKYSYTYDYFDYWGQGTLVTVSS
# VL: QTVVTQEPSFSVSPGGTVTLTCGLSSGSVSTSYYPSWYQQTPGQAPRTLIYSTNTRSSGVPDRFSGSILGNKAALTITGAQADDESDYYCVLYMGSGISYVFGTGTKVTVL
# notes: Fab made in E. coli; VH cloned into Plasmid A (CH1, His6 and Flag tags), lambda VL into Plasmid E (lambda CL); also called H:KT & L:wt; KT double mutant
# B2: Fab VH5-51_IGHD5-18*01>3_IGHJ4*01 G100K/G104T (KT) & V3-4_IGLJ1*01 (Fab, V domains shown)
# VH: B1 VH
# VL: B1 VL
# notes: Tested as a Fab expressed in E. coli; The heavy chain variable region was cloned into Plasmid A (CH1 constant region, His6 and Flag tags); The lambda light chain variable region was cloned into Plasmid E (lambda CL); also called H:KT & L:wt; KT double mutant
# B3: Fab VH5-51_IGHD5-18*01>3_IGHJ4*01 G100K/G104T & V3-4_IGLJ1*01 (Fab, V domains shown)
# VH: B1 VH
# VL: B1 VL
# notes: Fab made in E. coli (heavy chain vector with CH1, His6 and Flag tags; lambda CL vector); also called KT; H:KT
# B4: Fab VH5-51_IGHD5-18*01>3_IGHJ4*01 G100K/G104T D109A & V3-4_IGLJ1*01 (Fab, V domains shown)
# VH: B1 VH with D109A
# VL: B1 VL
# notes: Fab made in E. coli (heavy chain vector with CH1, His6 and Flag tags; lambda CL vector)
# B5: Fab VH5-51_IGHD5-18*01>3_IGHJ4*01 G100K/G104T S84L & V3-4_IGLJ1*01 (Fab, V domains shown)
# VH: B1 VH with S84L
# VL: B1 VL
# notes: as for B4
# B6: Fab VH5-51_IGHD5-18*01>3_IGHJ4*01 G100K/G104T S84V & V3-4_IGLJ1*01 (Fab, V domains shown)
# VH: B1 VH with S84V
# VL: B1 VL
# notes: as for B4
# What was measured:
# [1] = molecular target: T4, rHuman P-Cadherin/Fc Chimera, CF (R&D Systems Cat#861-PC) (human, UniProt P22223 108-654); experiment: MSD Multispot ECL, antigen spotted on plate, Fab in solution; blank spot of the row 424
# T4 construct: Bought recombinant Fc chimera; Fc part of the bought chimera not given
# [2] = molecular target: T1, rHuman Erythropoietin R/Fc Chimera, CF …; experiment: as above
# [3] = molecular target: T5, rHuman Notch-1/Fc Chimera, CF (R&D Systems Cat#3647-TK) (human, UniProt P46531 19-526); experiment: as above
# T5 construct: Bought recombinant Fc chimera; Fc part of the bought chimera not given
# [4] = molecular target: T6, rHuman EGF R/Fc Chimera, CF (R&D Systems Cat#344-ER) (human, UniProt P00533 25-645); experiment: as above
# T6 construct: Bought recombinant Fc chimera; also called epidermal growth factor receptor; Fc part of the bought chimera not given
# [5] = molecular target: T7, rHuman HGF R/c-MET/Fc Chimera, CF (R&D Systems Cat#358-MT/CF) (human, UniProt P08581 25-932); experiment: as above
# T7 construct: Bought recombinant Fc chimera; also called HGF R/Fc; hepatocyte growth factor receptor; Fc part of the bought chimera not given
# [6] = molecular target: T8, Recombinant Human DLL4 (R&D Systems Cat#1506-D4/CF) (human, UniProt Q9NR61 27-524); experiment: as above
# T8 construct: Bought recombinant protein; also called delta-like protein 4; Delta-like 4
# [7] = molecular target: T4, rHuman P-Cadherin/Fc Chimera, CF (R&D …); experiment: MSD Multispot ECL, antigen spotted on plate, Fab in solution; blank spot of the row 240
# [8] = molecular target: T1, rHuman Erythropoietin R/Fc Chimera, CF …; experiment: as above
# [9] = molecular target: T5, rHuman Notch-1/Fc Chimera, CF (R&D …); experiment: as above
# [10] = molecular target: T6, rHuman EGF R/Fc Chimera, CF (R&D …); experiment: as above
# [11] = molecular target: T7, rHuman HGF R/c-MET/Fc Chimera, CF (R&D …); experiment: as above
# [12] = molecular target: T8, Recombinant Human DLL4 (R&D Systems …); experiment: as above
# [13] = molecular target: T9, Recombinant Human DLL4 (R&D Systems Cat#1506-D4/CF) (human, UniProt Q9NR61 27-524); experiment: ECL (MSD) multispot binding assay, antigen spotted on the plate, Fab in solution; blank spot of this well 213
# T9 construct: Bought recombinant protein; also called rHuman DLL4; delta-like protein 4
# [14] = molecular target: T10, rHuman P-Cadherin/Fc Chimera, CF (R&D Systems Cat#861-PC) (human, UniProt P22223 108-654); experiment: as above
# T10 construct: Bought reagent; Fc part of the bought chimera not given
# [15] = molecular target: T2, rHuman Erythropoietin R/Fc Chimera, CF …; experiment: as above
# [16] = molecular target: T11, Recombinant Human DLL4 (delta-like protein 4) (human, UniProt Q9NR61 27-524); experiment: ELISA, DLL4 coated on plate
# T11 construct: Bought recombinant protein (R&D Systems Cat#1506-D4/CF); also called rHuman DLL4
# [17] = molecular target: T11, Recombinant Human DLL4 (delta-like …); experiment: ECL (MSD) multispot assay, antigen spotted; blank spot of this row 424
# [18] = molecular target: T12, rHuman ErbB2/Fc Chimera (human, UniProt P04626 23-652); experiment: as above
# T12 construct: not shown: Fc of the bought R&D Systems chimera
# [19] = molecular target: T13, rHuman P-Cadherin/Fc Chimera (human, UniProt P22223 108-654); experiment: as above
# T13 construct: R&D Systems Cat#861-PC; not shown: Fc of the bought R&D Systems chimera
# [20] = molecular target: T14, rHuman CD44/Fc Chimera (human, UniProt P16070 21-220); experiment: as above
# T14 construct: not shown: Fc of the bought R&D Systems chimera
# [21] = molecular target: T15, rHuman EGF R/Fc Chimera (human, UniProt P00533 25-645); experiment: as above
# T15 construct: not shown: Fc of the bought R&D Systems chimera
# [22] = molecular target: T16, rHuman Notch-1/Fc Chimera (human, UniProt P46531 19-526); experiment: as above
# T16 construct: R&D Systems Cat#3647-TK; not shown: Fc of the bought R&D Systems chimera
# [23] = molecular target: T3, rHuman Erythropoietin R/Fc Chimera; experiment: as above
# [24] = molecular target: T11, Recombinant Human DLL4 (delta-like …); experiment: ECL (MSD) multispot binding assay; value equals DLL4 signal over blank of Table 91
# [25] = molecular target: T11, Recombinant Human DLL4 (delta-like …); experiment: ECL (MSD) multispot assay, antigen spotted; blank spot of this row 284
# [26] = molecular target: T12, rHuman ErbB2/Fc Chimera; experiment: as above
# [27] = molecular target: T13, rHuman P-Cadherin/Fc Chimera; experiment: as above
# [28] = molecular target: T14, rHuman CD44/Fc Chimera; experiment: as above
# [29] = molecular target: T15, rHuman EGF R/Fc Chimera; experiment: as above
# [30] = molecular target: T16, rHuman Notch-1/Fc Chimera; experiment: as above
# [31] = molecular target: T13, rHuman P-Cadherin/Fc Chimera; experiment: ECL (MSD) multispot assay, antigen spotted; blank spot of this row 223
# [32] = molecular target: T15, rHuman EGF R/Fc Chimera; experiment: as above
# [33] = molecular target: T16, rHuman Notch-1/Fc Chimera; experiment: as above
# [34] = molecular target: T11, Recombinant Human DLL4 (delta-like …); experiment: ECL (MSD) multispot assay, antigen spotted; blank spot of this row 236
# [35] = molecular target: T13, rHuman P-Cadherin/Fc Chimera; experiment: as above
# [36] = molecular target: T15, rHuman EGF R/Fc Chimera; experiment: as above
# T7 sequence (P08581 25-932, change not shown): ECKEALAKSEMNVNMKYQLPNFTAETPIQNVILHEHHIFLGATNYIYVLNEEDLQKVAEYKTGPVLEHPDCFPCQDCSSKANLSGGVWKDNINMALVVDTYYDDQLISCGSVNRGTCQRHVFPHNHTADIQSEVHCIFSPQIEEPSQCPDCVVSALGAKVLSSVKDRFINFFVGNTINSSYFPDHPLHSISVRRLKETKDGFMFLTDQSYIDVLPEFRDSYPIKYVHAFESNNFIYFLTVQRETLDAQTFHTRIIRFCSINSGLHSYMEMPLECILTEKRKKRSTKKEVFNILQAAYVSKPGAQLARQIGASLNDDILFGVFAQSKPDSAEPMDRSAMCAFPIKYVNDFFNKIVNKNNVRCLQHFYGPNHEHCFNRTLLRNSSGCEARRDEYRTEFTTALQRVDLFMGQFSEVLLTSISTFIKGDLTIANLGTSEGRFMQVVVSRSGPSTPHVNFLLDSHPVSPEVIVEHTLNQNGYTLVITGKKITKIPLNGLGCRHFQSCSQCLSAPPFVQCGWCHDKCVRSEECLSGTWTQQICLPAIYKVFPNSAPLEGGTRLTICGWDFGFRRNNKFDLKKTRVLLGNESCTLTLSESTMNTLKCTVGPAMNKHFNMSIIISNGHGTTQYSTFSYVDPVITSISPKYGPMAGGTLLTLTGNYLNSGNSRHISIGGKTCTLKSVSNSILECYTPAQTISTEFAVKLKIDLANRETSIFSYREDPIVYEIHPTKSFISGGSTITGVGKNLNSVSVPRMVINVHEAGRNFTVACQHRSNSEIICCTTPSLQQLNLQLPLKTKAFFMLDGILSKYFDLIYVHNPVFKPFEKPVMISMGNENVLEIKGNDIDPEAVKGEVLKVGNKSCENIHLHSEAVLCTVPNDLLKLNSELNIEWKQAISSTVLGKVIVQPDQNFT
binder,measurement,setting,value
B1,ECL signal,[1],319
same,ECL signal,[2],554
same,ECL signal,[3],543
same,ECL signal,[4],852
same,ECL signal,[5],838
same,ECL signal,[6],36400
same,ECL signal,[7],346
same,ECL signal,[8],497
same,ECL signal,[9],507
same,ECL signal,[10],915
same,ECL signal,[11],936
same,ECL signal,[12],45100
B2,ECL signal,[13],32700
same,ECL signal,[14],226
same,ECL signal,[15],421
B3,ELISA (Signal-Noise),[16],0
same,ECL signal,[17],36400
same,ECL signal,[18],1100
same,ECL signal,[19],319
same,ECL signal,[20],579
same,ECL signal,[21],852
same,ECL signal,[22],543
same,ECL signal,[23],554
same,ECL signal-to-blank ratio,[24],85.9
B4,ELISA (Signal-Noise),[16],0
same,ECL signal,[25],21800
same,ECL signal,[26],1100
same,ECL signal,[27],406
same,ECL signal,[28],538
same,ECL signal,[29],791
same,ECL signal,[30],443
same,ECL signal-to-blank ratio,[24],76.8
B5,ECL signal,[31],320
same,ECL signal,[32],864
same,ECL signal,[33],410
B6,ELISA (Signal-Noise),[16],0.02
same,ECL signal,[34],8890
same,ECL signal,[35],362
same,ECL signal,[36],805
same,ECL signal-to-blank ratio,[24],37.7
